Results reported in patent US20200317768A1 (published 2020).
Positions count from the first letter of the chain named. Numbers in names are those of the source.

T1: human FcγRIIaR extracellular domain, C-terminal His-tag (human, UniProt P12318 34-217)
T1 construct: also called human FcγRIIa (type R); FcgRIIaR
T1 chain: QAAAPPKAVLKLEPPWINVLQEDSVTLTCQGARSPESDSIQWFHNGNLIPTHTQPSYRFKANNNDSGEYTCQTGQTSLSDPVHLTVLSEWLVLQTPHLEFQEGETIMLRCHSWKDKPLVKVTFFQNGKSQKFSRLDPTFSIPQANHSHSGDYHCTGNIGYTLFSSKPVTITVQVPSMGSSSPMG

T2: human FcγRIIb extracellular domain, C-terminal His-tag (human, UniProt P31994 43-217)
T2 construct: also called FcgRIIb (human)
T2 sequence: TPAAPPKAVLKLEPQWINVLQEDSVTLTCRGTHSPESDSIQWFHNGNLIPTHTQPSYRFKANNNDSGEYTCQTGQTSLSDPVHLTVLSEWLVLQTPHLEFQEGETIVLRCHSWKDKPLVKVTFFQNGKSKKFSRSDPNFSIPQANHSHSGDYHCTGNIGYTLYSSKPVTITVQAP

T3: human FcγRIIaH extracellular domain, C-terminal His-tag (human, UniProt P12318 34-217)
T3 construct: also called human FcγRIIa (type H); FcgRIIaH
T3 sequence: T1 chain with R134H

B1: GpH7-B3 variant G236N/GpL16-k0 (antibody, human IgG1, kappa)
heavy: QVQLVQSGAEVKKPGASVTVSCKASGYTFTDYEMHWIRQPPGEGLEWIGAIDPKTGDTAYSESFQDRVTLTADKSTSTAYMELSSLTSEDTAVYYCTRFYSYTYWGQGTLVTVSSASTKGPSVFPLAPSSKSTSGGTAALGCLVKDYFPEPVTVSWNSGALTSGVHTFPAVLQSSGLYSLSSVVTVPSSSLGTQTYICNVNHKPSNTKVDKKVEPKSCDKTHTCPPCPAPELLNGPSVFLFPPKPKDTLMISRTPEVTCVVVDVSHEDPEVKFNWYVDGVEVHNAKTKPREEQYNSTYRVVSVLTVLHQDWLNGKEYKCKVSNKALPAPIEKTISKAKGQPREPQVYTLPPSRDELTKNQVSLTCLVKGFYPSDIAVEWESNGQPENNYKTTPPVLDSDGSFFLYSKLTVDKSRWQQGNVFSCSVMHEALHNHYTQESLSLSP
light: DIVMTQSPLSLPVTPGEPASISCQASESLVHSNRNTYLHWYLQKPGQSPQLLIYKVSNRFSGVPDRFSGSGSGTDFTLKISRVEAEDVGVYYCSQNTHVPPTFGQGTKVEIERTVAAPSVFIFPPSDEQLKSGTASVVCLLNNFYPREAKVQWKVDNALQSGNSQESVTEQDSKDSTYSLSSTLTLSKADYEKHKVYACEVTHQGLSSPVTKSFNRGEC
B2: GpH7-B3 variant G237D/GpL16-k0 (antibody, human IgG1, kappa)
heavy: not shown
light: B1 light
B3: GpH7-B3 variant K334M/GpL16-k0 (antibody, human IgG1, kappa)
heavy: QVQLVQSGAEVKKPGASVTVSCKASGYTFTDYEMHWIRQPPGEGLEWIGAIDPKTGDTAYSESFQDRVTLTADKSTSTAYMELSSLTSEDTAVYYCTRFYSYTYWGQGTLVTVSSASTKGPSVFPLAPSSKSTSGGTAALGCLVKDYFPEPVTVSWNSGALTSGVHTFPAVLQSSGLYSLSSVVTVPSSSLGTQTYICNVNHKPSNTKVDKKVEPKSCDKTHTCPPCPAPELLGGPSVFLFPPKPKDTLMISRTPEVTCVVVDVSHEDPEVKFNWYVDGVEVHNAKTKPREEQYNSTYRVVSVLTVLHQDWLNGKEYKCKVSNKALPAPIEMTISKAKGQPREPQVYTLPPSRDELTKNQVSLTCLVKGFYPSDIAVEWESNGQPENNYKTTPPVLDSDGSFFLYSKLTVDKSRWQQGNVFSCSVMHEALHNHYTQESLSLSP
light: B1 light
B4: GpH7-B3 variant G236S/GpL16-k0 (antibody, human IgG1, kappa)
heavy: not shown
light: B1 light
B5: GpH7-B3 variant N325E/GpL16-k0 (antibody, human IgG1, kappa)
heavy: not shown
light: B1 light
B6: GpH7-B3 variant K334I/GpL16-k0 (antibody, human IgG1, kappa)
heavy: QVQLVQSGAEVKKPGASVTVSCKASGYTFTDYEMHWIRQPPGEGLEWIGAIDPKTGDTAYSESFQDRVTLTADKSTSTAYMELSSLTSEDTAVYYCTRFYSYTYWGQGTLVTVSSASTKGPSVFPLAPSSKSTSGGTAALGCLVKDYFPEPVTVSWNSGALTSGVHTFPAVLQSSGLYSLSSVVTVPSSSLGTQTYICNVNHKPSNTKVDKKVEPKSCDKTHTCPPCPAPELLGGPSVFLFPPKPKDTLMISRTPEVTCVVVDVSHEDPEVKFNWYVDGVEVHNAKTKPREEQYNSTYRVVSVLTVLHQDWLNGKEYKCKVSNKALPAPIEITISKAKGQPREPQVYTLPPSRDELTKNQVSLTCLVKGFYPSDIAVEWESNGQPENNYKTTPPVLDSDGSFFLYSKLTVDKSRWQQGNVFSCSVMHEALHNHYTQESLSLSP
light: B1 light
B7: GpH7-B3 variant P271D/GpL16-k0 (antibody, human IgG1, kappa)
heavy: not shown
light: B1 light
B8: GpH7-B3 variant S239N/GpL16-k0 (antibody, human IgG1, kappa)
heavy: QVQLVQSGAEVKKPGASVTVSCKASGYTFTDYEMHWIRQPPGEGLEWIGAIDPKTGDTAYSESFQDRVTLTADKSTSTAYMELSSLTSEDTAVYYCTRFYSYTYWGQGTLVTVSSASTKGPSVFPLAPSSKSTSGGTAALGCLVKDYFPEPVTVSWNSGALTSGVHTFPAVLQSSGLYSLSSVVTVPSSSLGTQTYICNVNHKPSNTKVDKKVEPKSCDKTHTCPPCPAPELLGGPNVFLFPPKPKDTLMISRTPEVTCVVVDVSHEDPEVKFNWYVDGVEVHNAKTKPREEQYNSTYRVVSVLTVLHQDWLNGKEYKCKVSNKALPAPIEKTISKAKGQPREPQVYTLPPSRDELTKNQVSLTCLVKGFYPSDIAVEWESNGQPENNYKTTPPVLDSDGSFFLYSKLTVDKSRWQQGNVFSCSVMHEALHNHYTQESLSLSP
light: B1 light
B9: GpH7-B3 variant L328T/GpL16-k0 (antibody, human IgG1, kappa)
heavy: not shown
light: B1 light
B10: GpH7-B3 variant K334V/GpL16-k0 (antibody, human IgG1, kappa)
heavy: not shown
light: B1 light
B11: GpH7-B3 variant Q295L/GpL16-k0 (antibody, human IgG1, kappa)
heavy: not shown
light: B1 light
B12: GpH7-B3 variant A327I/GpL16-k0 (antibody, human IgG1, kappa)
heavy: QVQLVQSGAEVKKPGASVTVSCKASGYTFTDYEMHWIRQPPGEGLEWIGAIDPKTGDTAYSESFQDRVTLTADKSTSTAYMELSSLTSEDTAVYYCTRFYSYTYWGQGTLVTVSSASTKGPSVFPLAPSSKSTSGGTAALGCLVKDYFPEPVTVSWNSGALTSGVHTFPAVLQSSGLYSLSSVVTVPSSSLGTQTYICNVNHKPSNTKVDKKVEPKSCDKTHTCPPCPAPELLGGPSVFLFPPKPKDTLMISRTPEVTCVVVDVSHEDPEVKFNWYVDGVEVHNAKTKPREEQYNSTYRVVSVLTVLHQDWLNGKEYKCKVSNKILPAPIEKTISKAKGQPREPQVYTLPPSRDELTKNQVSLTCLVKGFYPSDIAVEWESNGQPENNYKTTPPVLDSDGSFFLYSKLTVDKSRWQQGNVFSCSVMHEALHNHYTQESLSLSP
light: B1 light
B13: GpH7-B3 variant G236D/GpL16-k0 (antibody, human IgG1, kappa)
heavy: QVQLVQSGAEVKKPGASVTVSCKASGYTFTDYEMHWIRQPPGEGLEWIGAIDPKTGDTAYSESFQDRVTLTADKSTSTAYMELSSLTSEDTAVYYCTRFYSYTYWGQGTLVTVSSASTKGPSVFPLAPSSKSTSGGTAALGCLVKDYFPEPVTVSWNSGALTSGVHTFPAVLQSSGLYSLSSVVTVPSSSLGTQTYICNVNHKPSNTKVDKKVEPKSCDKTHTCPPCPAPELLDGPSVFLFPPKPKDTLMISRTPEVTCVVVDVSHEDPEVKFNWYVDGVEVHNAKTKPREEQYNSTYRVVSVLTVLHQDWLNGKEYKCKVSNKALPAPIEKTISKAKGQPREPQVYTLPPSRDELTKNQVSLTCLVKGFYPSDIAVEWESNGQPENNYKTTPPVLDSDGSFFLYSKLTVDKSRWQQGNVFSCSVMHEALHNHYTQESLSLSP
light: B1 light
B14: GpH7-B3 variant P331E/GpL16-k0 (antibody, human IgG1, kappa)
heavy: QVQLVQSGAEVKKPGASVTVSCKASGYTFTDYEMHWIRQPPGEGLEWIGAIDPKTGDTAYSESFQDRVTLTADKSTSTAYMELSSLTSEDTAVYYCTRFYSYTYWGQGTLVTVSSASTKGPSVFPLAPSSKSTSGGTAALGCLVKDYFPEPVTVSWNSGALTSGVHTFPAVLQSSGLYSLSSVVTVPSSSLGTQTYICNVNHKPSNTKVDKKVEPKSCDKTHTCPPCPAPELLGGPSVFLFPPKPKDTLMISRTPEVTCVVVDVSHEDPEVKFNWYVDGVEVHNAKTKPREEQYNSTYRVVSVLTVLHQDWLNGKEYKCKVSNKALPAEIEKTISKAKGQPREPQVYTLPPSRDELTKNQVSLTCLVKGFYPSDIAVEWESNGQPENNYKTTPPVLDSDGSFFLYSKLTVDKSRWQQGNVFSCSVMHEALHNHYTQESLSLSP
light: B1 light
B15: GpH7-B3 variant L235W/GpL16-k0 (antibody, human IgG1, kappa)
heavy: not shown
light: B1 light
B16: GpH7-B3 variant H268E/GpL16-k0 (antibody, human IgG1, kappa)
heavy: not shown
light: B1 light
B17: GpH7-B3 variant G236A/GpL16-k0 (antibody, human IgG1, kappa)
heavy: not shown
light: B1 light
B18: GpH7-B3 variant S239P/GpL16-k0 (antibody, human IgG1, kappa)
heavy: not shown
light: B1 light
B19: GpH7-B3 variant P238Q/GpL16-k0 (antibody, human IgG1, kappa)
heavy: not shown
light: B1 light
B20: GpH7-B3 variant S239V/GpL16-k0 (antibody, human IgG1, kappa)
heavy: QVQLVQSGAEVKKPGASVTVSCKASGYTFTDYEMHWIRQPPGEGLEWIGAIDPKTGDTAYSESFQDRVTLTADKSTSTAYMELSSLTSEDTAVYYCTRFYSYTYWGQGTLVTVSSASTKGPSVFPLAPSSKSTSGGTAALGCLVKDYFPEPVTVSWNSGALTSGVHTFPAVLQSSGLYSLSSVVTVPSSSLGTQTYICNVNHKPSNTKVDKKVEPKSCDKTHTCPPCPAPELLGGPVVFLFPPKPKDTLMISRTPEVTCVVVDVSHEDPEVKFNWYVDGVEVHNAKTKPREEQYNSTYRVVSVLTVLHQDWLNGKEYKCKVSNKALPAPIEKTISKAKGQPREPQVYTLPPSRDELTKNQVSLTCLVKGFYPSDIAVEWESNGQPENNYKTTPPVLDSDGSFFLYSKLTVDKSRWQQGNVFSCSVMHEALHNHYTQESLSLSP
light: B1 light
B21: GpH7-B3 variant I332D/GpL16-k0 (antibody, human IgG1, kappa)
heavy: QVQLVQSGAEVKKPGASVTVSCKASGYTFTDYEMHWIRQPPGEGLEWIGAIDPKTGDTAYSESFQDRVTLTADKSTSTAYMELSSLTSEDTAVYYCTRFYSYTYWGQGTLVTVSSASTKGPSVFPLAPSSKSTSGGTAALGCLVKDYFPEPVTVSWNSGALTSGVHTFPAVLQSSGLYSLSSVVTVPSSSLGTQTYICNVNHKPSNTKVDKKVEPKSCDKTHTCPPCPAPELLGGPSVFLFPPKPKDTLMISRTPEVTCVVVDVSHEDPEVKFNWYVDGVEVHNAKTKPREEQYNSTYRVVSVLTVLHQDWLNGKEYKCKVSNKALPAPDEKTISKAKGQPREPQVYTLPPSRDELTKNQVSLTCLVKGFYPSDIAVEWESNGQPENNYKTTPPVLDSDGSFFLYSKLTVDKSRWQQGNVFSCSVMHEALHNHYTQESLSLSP
light: B1 light
B22: GpH7-B3 variant P271G/GpL16-k0 (antibody, human IgG1, kappa)
heavy: not shown
light: B1 light
B23: GpH7-B3 variant K334Y/GpL16-k0 (antibody, human IgG1, kappa)
heavy: not shown
light: B1 light
B24: GpH7-B3 variant K326T/GpL16-k0 (antibody, human IgG1, kappa)
heavy: not shown
light: B1 light
B25: GpH7-B3 variant S239I/GpL16-k0 (antibody, human IgG1, kappa)
heavy: not shown
light: B1 light
B26: GpH7-B3 variant H268D/GpL16-k0 (antibody, human IgG1, kappa)
heavy: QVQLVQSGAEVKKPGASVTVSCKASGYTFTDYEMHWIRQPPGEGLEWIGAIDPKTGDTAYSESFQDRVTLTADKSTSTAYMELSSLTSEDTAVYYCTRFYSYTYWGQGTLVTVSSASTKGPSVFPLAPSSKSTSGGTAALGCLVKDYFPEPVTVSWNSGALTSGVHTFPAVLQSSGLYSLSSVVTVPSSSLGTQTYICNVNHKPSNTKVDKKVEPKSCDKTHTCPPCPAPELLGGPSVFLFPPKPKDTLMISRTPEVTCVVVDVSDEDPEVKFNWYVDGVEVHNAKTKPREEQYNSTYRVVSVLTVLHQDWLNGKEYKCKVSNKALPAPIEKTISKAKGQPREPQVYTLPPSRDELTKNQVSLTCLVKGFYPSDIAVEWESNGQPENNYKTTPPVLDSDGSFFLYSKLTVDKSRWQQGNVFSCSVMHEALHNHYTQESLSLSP
light: B1 light
B27: GpH7-B3 variant G236E/GpL16-k0 (antibody, human IgG1, kappa)
heavy: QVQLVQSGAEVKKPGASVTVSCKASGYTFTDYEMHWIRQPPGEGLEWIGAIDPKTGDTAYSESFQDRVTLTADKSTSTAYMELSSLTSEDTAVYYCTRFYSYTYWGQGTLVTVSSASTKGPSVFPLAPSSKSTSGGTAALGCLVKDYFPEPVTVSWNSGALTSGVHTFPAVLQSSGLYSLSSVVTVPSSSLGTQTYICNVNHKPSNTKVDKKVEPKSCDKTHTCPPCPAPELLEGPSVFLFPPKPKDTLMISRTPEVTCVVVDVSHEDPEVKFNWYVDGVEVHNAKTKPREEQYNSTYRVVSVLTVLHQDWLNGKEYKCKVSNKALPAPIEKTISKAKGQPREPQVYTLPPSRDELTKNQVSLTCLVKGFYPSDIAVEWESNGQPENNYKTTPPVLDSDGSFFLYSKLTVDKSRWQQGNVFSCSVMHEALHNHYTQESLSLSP
light: B1 light
B28: GpH7-B3 variant L234W/GpL16-k0 (antibody, human IgG1, kappa)
heavy: not shown
light: B1 light
B29: GpH7-B3 variant L234Y/GpL16-k0 (antibody, human IgG1, kappa)
heavy: not shown
light: B1 light
B30: GpH7-B3 variant K334D/GpL16-k0 (antibody, human IgG1, kappa)
heavy: not shown
light: B1 light

Experiments:
Experiment in all cases: SPR 25C; FcgR bound per captured antibody, relative to parent B3
[1] = target: T1, human FcγRIIaR extracellular domain, …
Protocol: (§1) These Fc variants are referred to as B3 variants. B3 variants were expressed and the binding of protein-A purified antibodies to each FcγR (FcγRIIa type H. FcγRIIa type R, FcγRIIb, and FcγRIIIaF) was comprehensively evaluated as follows. Analysis of interaction between each altered antibody and the Fcγ receptor prepared as mentioned above was carried out using BIACORE® T100 (GE Healthcare), BIACORE® T200 (GE Healthcare), BIACORE® A100, or BIACORE® 4000. HBS-EP+(GE Healthcare) was used as the running buffer, and the measurement temperature was set to 25° C. Chips produced by immobilizing Protein A (Thermo Scientific), Protein A/G (Thermo Scientific), or Protein L (ACTIGEN or BioVision) by the amine coupling method to a Series S sensor Chip CM5 or CM4 (GE Healthcare) were used. After capturing of antibodies of interest onto these sensor chips, an Fcγ receptor diluted with the running buffer was allowed to interact, the amount bound to an antibody was measured. However, since the amount of Fcγ receptor bound depends on the amount of the captured antibodies, the amount of Fcγ receptor bound was divided by the amount of each antibody captured to obtain corrected values, and these values were compared. Furthermore, antibodies captured onto the chips were washed by 10 mM glycine-HCl pH1.5, and the chips were regenerated and used repeatedly. […] The value obtained by multiplying this value by 100 was used as an indicator of the relative FcγR-binding activity of each variant.

[2] = target: T2, human FcγRIIb extracellular domain, …
Protocol: as §1

[3] = target: T3, human FcγRIIaH extracellular domain, …
Protocol: as §1

Binder	Binding to human FcgRs (parent B3 = 100) [1]	Binding to human FcgRs (parent B3 = 100) [2]	Binding to human FcgRs (parent B3 = 100) [3]
B1	81 parent B3 = 100	75 parent B3 = 100	54 parent B3 = 100
B2	0 parent B3 = 100	95 parent B3 = 100	74 parent B3 = 100
B3	127 parent B3 = 100	148 parent B3 = 100	151 parent B3 = 100
B4	161 parent B3 = 100	87 parent B3 = 100	147 parent B3 = 100
B5	13 parent B3 = 100	40 parent B3 = 100	49 parent B3 = 100
B6	137 parent B3 = 100	174 parent B3 = 100	169 parent B3 = 100
B7	55 parent B3 = 100	110 parent B3 = 100	–
B8	80 parent B3 = 100	124 parent B3 = 100	99 parent B3 = 100
B9	135 parent B3 = 100	179 parent B3 = 100	156 parent B3 = 100
B10	132 parent B3 = 100	184 parent B3 = 100	172 parent B3 = 100
B11	148 parent B3 = 100	156 parent B3 = 100	128 parent B3 = 100
B12	12 parent B3 = 100	46 parent B3 = 100	37 parent B3 = 100
B13	91 parent B3 = 100	212 parent B3 = 100	109 parent B3 = 100
B14	67 parent B3 = 100	100 parent B3 = 100	96 parent B3 = 100
B15	128 parent B3 = 100	130 parent B3 = 100	136 parent B3 = 100
B16	132 parent B3 = 100	283 parent B3 = 100	169 parent B3 = 100
B17	168 parent B3 = 100	94 parent B3 = 100	165 parent B3 = 100
B18	–	61 parent B3 = 100	49 parent B3 = 100
B19	4 parent B3 = 100	43 parent B3 = 100	19 parent B3 = 100
B20	71 parent B3 = 100	107 parent B3 = 100	79 parent B3 = 100
B21	139 parent B3 = 100	198 parent B3 = 100	129 parent B3 = 100
B22	130 parent B3 = 100	252 parent B3 = 100	152 parent B3 = 100
B23	131 parent B3 = 100	160 parent B3 = 100	157 parent B3 = 100
B24	127 parent B3 = 100	195 parent B3 = 100	138 parent B3 = 100
B25	75 parent B3 = 100	108 parent B3 = 100	82 parent B3 = 100
B26	142 parent B3 = 100	307 parent B3 = 100	173 parent B3 = 100
B27	131 parent B3 = 100	117 parent B3 = 100	142 parent B3 = 100
B28	63 parent B3 = 100	90 parent B3 = 100	64 parent B3 = 100
B29	50 parent B3 = 100	55 parent B3 = 100	38 parent B3 = 100
B30	72 parent B3 = 100	108 parent B3 = 100	97 parent B3 = 100
